The text below walks through data of patent US20090291081A1 (AbbVie / Abbott, published 2009).

Sequences and labels used below:
T1: human IL-1α (human, UniProt P01583 113-271)
T1 construct: also called IL-1alpha; hIL-1α
T1 sequence (looked up): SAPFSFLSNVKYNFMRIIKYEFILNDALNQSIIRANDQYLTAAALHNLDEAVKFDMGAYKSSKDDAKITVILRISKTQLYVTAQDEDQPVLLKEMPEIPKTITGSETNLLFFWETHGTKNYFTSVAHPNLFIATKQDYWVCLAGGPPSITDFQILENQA

B1: ABT1-122-750xH (other)
VL: DIQMTQSPSSLSASVGDRVAITCSASQHIWTEISWYQQKPGKAPKLLIYGSASRQKGVPSRFSGSGSGTDFTLTISSLQPEDFATYHCKQFAYFPNTFGQGTKVEIKR
notes: VK dAb
B2: ABT1-122-513 (other)
VL: DIQMTQSPSSLSASVGDRVTITCRASQPIWTELNWYQQKPGKAPKLLIYGSGSRQRGVPSRFSGSGSGTDFTLTISSLQPEDFATYYCKQFAYFPATFGQGTKVEIKR
notes: VK dAb
B3: ABT1-122-510 (other)
VL: DIQMTQSPSSLSASVGDRVTITCRFSYPIWTELNWYQQKPGKAPKLLIYGSSSLQSGVPSRFSGSGSGTDFTLTISSLQPEDFATYYCQQFAYFPATFGQGTKVEIKR
notes: VK dAb
B4: ABT1-122-505 (other)
VL: DIQMTQSPSSLSASVGDRVTITCRASQPIWTELNWYQQKPGKAPKLLIYGSSSLQSGVPSRFSGSGSGTDFTLTISSLQPEDFATYYCKQFAYFPATFGQGTKVEIKR
notes: VK dAb
B5: ABT1-122-508 (other)
VL: DIQMTQSPSSLSASVGDRVTITCRASQPIWTELNWYQQKPGKAPKLLIYGSSSLQRGVPSRFSGSGSGTDFTLTISSLQPEDFATYYCQQFAYFPATFGQGTKVEIKR
notes: VK dAb
B6: ABT1-122-512 (other)
VL: DIQMTQSPSSLSASVGDRVTITCRASQPIWTELNWYQQKPGKAPKLLIYGSAKRQRGVPSRFSGSGSGTDFTLTISSLQPEDFATYYCKQFAYFPATFGQGTKVEIKR
notes: VK dAb
B7: ABT1-122-750MH (other)
VL: DIQMTQSPSSLSASVGDRVTITCSASQHIWTEMSWYQQKPGKAPKLLIYGSASRQKGVPSRFSGSGSGTDFTLTISSLQPEDFATYHCKQFAYFPNTFGQGTKVEIKR
notes: VK dAb
B8: ABT1-122-555 (other)
VL: DIQMTQSPSSLSASVGDRVTITCRASQPIWTELNWYQQKPGKTPKLLIYGSSSLQSGVPSRFSGSGSGTDFTLTISSLQPEDFATYYCQQFAYFPATFGQGTKVEIKR
notes: VK dAb
B9: ABT1-122-556 (other)
VL: DIQMTQSPSSLSASVGDRVTITCRASQPIWTELNWYQQKPGKAPKLLIYGSSSLQSGVPSRFSGSGSGTDFTLTISSLQPEDFATYHCQQFAYFPATFGQGTKVEIKR
notes: VK dAb
B10: ABT1-122-750MT (other)
VL: DIQMTQSPSSLSASVGDRVTITCSASQHIWTEMSWYQQKPGKTPKLLIYGSASRQKGVPSRFSGSGSGTDFTLTISSLQPEDFATYYCKQFAYFPNTFGQGTKVEIKR
notes: VK dAb
B11: ABT1-122-750M (other)
VL: DIQMTQSPSSLSASVGDRVTITCSASQHIWTEMSWYQQKPGKAPKLLIYGSASRQKGVPSRFSGSGSGTDFTLTISSLQPEDFATYYCKQFAYFPNTFGQGTKVEIKR
notes: VK dAb
B12: ABT1-122-552 (other)
VL: DIQMTQSPSSLSASVGDRVTITCRASLGVWTELNWYQQKPGKAPKLLIYGSSSLQSGVPSRFSGSGSGTDFTLTISSLQPEDFATYYCQQFAYFPATFGQGTKVEIKR
notes: VK dAb
B13: ABT1-122-551 (other)
VL: DIQMTQSPSSLSASVGDRVTITCRAKFNIWTELNWYQQKPGKTPKLLIYGSSSLQSGVPSRFSGSGSGTDFTLTISSLQPEDFATYYCQQFAYFPATFGQGTKVEIKR
notes: VK dAb
B14: ABT1-95-A4 (other)
VL: DIQMTQSPSSLSASVGDRVTITCRASRPGVRNLRWYQQKPGKAPKLLIYSRSFLEPGVPSRFSGSGSGTDFTLTISSLQPEDFATYHCLQGYRWPPTFGQGTKVEIKR
notes: VK dAb
B15: ABT1-95-A1 (other)
VL: DIQMTQSPSSLSASVGDRVTITCRASRPGVRNLRWYQQKPGKAPKLLIYHVSDLEPGVPSRFSGSGSGTDFTLTISSLQPEDFATYHCRQGYVWPVPFDQGTKVEIKR
notes: VK dAb
B16: ABT1-122-553 (other)
VL: DIQMTQSPSSLSASVGDRVTITCRASQPIWTELKWYQQKPGKAPKLLIYGSSSLQSGVPSRFSGSGSGTDFTLTISSLQPEDFATYYCQQFAYFPATFGQGTKVEIKR
notes: VK dAb
B17: ABT1-222 (other)
VL: DIQMTQSPSSLSASVGDRVTITCRASQPITRNLRWYQQKPGKAPKLLIYHSSVLQSGVPSRFSGSGSGTDFTLTISSLQPEDFATYYCQQGYRWPVTFGQGTKVEIKR
notes: VK dAb
B18: ABT1-207 (other)
VH: EVQLLESGGGLIQPGGSLRLSCAASGFTFGRYYMSWVRQAPGKGLEWVSSIDYLGTNTYYADSVKGRFTISRDNSKNTLYLQMNSLRAEDTAVYYCAKLTRIRPPNFDYWGQGTLVTVSS
notes: VH dAb
B19: ABT2-108-606 (other)
VH: EVQLLESGGGLVQPGGSLRLSCAASGFTFAEYTMMWVRQAPGKGLEWVSRIGQDGKNTYYRSSVKGRFTISRDNSKNTLYLQMNSLRAEDTAVYYCAKYTGRVGVHHLFDYWGQGTLVTVSS
notes: VH dAb
B20: ABT2-108-603 (other)
VH: EVQLLESGGGLVQPGGSLRLSCAASGFTFAEYTMMWVRQAPGKGLEWVSRITDAGKNTYYADSVKGRFTISRDNSKNTLYLQMNSLRAEDTAVYYCAKYTGRVGVHHLFDYWGQGTLVTVSS
notes: VH dAb
B21: ABT2-108-601 (other)
VH: EVQLLESGGGLVQPGGSLRLSCAASGFTFAEESWMWVRQAPGKGLEWVSRIGQDGKNTYYADSVKGRFTISRDNSKNTLYLQMNSLRAEDTAVYYCAKYTGRVGVHHLFDYWGQGTLVTVSS
notes: VH dAb
B22: ABT2-108-620S (other)
VH: EVQLLESGGGLVQPGGSLRLSCAASGFTFSEESWMWVRQAPGKGLEWVSRIGQDGKNTYYREDVKGRFTISRDNSKNTLYLQMNSLRAEDTAVYYCAKYTGRIMGHHLFDYWGQGTLVTVSS
notes: VH dAb
B23: ABT2-108-607 (other)
VH: EVQLLESGGGLVQPGGSLRLSCAASGFTFAEYTMMWVRQAPGKGLEWVSRIGQDGKNTYYRSDVKGRFTISRDNSKNTLYLQMNSLRAEDTAVYYCAKYTGRVGVHHLFDYWGQGTLVTVSS
notes: VH dAb
B24: ABT2-108-604 (other)
VH: EVQLLESGGGLVQPGGSLRLSCAASGFTFAEYTMMWVRQAPGKGLEWVSRVTYDGKNTYYADSVKGRFTISRDNSKNTLYLQMNSLRAEDTAVYYCAKYTGRVGVHHLFDYWGQGTLVTVSS
notes: VH dAb
B25: ABT2-108-620x (other)
VH: EVQLLESGGGLVQPGGSLRLSCAASGFTFAEESWMWVRQAPGKGLEWVSRIGQDGKNTYYREDVKGRFTISRDNSKNTLYLQMNSLRAEDTAVYYCAKYTGRIMGHHLFDYWGQGTLVTVSS
notes: VH dAb
B26: ABT2-108-617 (other)
VH: EVQLLESGGGLVQPGGSLRLSCAASGFTFAEYTMMWVRQAPGKGLEWVSRIGQDGKNTYYADSVKGRFTISRDNSKNTLYLQMNSLRAEDTAVYYCAKYTGRIFTHHLFDYWGQGTLVTVSS
notes: VH dAb
B27: ABT2-108-605 (other)
VH: EVQLLESGGGLVQPGGSLRLSCAASGFTFAEYTMMWVRQAPGKGLEWVSRIGQDGKNTYYREDVKGRFTISRDNSKNTLYLQMNSLRAEDTAVYYCAKYTGRVGVHHLFDYWGQGTLVTVSS
notes: VH dAb
B28: ABT2-108-534x (other)
VH: EVQLLESGGGLVQPGGSLRLSCAASGFTFADEGMMWVRQAPGKGLEWVSRITYSGKNTYYADSVKGRFTISRDNSKNTLYLQMNSLRAEDTAVYYCAKYTGRIFSHHLFDYWGQGTLVTVSS
notes: VH dAb
B29: ABT2-108-602 (other)
VH: EVQLLESGGGLVQPGGSLRLSCAASGFTFAEEKYMWVRQAPGKGLEWVSRIGQDGKNTYYADSVKGRFTISRDNSKNTLYLQMNSLRAEDTAVYYCAKYTGRVGVHHLFDYWGQGTLVTVSS
notes: VH dAb
B30: ABT2-108-612 (other)
VH: EVQLLESGGGLVQPGGSLRLSCAASGFTFAEYTMMWVRQAPGKGLEWVSRIGQDGKNTYYADSVKGRFTISRDNSKNTLYLQMNSLRAEDTAVYYCAKYTGRIMGHHLFDYWGQGTLVTVSS
notes: VH dAb
B31: ABT2-108/ABT1-122 Fab on yeast surface (Fab, V domains shown)
VH: EVQLLESGGGLVQPGGSLRLSCAASGFTFAEYTMMWVRQAPGKGLEWVSRIGQDGKNTYYADSVKGRFTISRDNSKNTLYLQMNSLRAEDTAVYYCAKYTGRVGVHHLFDYWGQGTLVTVSS
VL: DIQMTQSPSSLSASVGDRVTITCRASQPIWTELNWYQQKPGKAPKLLIYGSSSLQSGVPSRFSGSGSGTDFTLTISSLQPEDFATYYCQQFAYFPATFGQGTKVEIKR

The first assay concerns the target T1, human IL-1α. Put plainly: Table 60 heading; dAbs from selection on antigen.
Consider B1, for which the binding result is “binds”. Still for that read-out and setting: under B2 stands “binds”; under B3, “binds”. On to B4, for which the binding result is listed as “binds”. On the same count and under the same terms, under B5 stands “binds”; under B6, “binds”. On the same count and under the same terms, as for B7, the entry is “binds”. On the same count and under the same terms, under B8 stands “binds”.

Regarding B9, the binding result was “binds”. The same measure, in the same setting: under B10 stands “binds”; under B11, “binds”. Turning to B12, the binding result was “binds”. Same read-out and setting: as for B13, the entry is “binds”; as for B14, “binds”; as for B15, “binds”. B16: the binding result is recorded as “binds”. Consider B17, for which the binding result was “binds”. Consider B18, for which the binding result was “binds”.

Another assay has as its target T2, human IL-1β (human, UniProt P01584 117-269).
T2 construct: also called IL-1beta; hIL-1β
Put plainly: Table 60 heading; dAbs from selection on antigen.
For B19, the binding result is given as “binds”. As for B20, the binding result is listed as “binds”. On the same count and under the same terms, as for B21, the entry is “binds”; as for B22, “binds”; as for B23, “binds”. For B24, the binding result is given as “binds”. On the same count and under the same terms, under B25 stands “binds”. On to B26, for which the binding result is recorded as “binds”. As for B27, the binding result is reported as “binds”.

For the molecule B28, the binding result is recorded as “binds”. Still for that read-out and setting: as for B29, the entry is “binds”; as for B30, “binds”.

The target of another assay is T3, human IL-1β (human, UniProt P01584 117-269).
T3 construct: also called hIL-1β; rhIL-1 beta
The experiment in a line: yeast surface Fab display, flow cytometry titration.
Turning to B31, it took 5.78 nM to reach a half-maximal effect (EC50).
